According to paper PMC7374565:
pKd: −log10 of the molar value.

Experiments:
[1] = biological target: LRR of ANP32A alone (not stated (human and Gallus gallus ANP32A were used)); experiment: NMR titration
[2] = biological target: full-length avian ANP32A (Gallus gallus) (Gallus gallus); experiment: NMR titration

Substance | pKd [1] | pKd [2]
the 627 domain (E627 or K627 not stated) (domain or fragment) | < 2.82 | –
627-NLS domains of PB2, E627 form (amino acids 538-759, avian H5N1 A/duck/Shantou/4610/2003) (domain or fragment) | – | < 2.52
